In the supplement of paper PMC10567573:

B1: PDLIM7 (parent)
chain: AAGGVPGGGSNNGKTPVCHQCHKV
B2: KLHL12 (parent)
chain: SMTTPRCYVGATVLRGRLYAIAGY

Variants of: B1
Assay: protein stability index of a GFP-peptide fusion (GPS, HEK-293T) (PSI 1-6); higher = more stable
Conditions: c terminus: a fixed tail appended
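Also: lentivirally expressed fusions sorted by FACS into six bins by GFP to DsRed ratio, PSI derived from sequencing read proportions per bin multiplied by bin number.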

Protein stability index: each site, then its substitutions
A1: W 3.22 | I 3.52 | K 3.36 | Y 1.95 | L 3.76 | F 2.45 | V 3.93 | C 3.35 | P 3.33 | S 2.44 | H 4.13 | M 3.5 | G 3.52 | D 4.34 | N 3.03 | R 2.36 | E 4.24 | T 2.73
G3: F 3.31 | C 3.41 | H 4.17 | S 3.42 | D 4.08 | Y 3.54 | N 3.14 | I 2.02 | T 3.3 | K 3.87
G7: M 2.06 | S 3.95 | N 4.05 | R 3.89 | V 3.53 | Q 3.93 | E 4.47 | K 4.09 | P 3.4 | I 3.1 | C 3.49 | H 3.68 | D 4.3 | F 2.9 | Y 3.4 | W 2.26 | L 3.47 | T 3.56
S10: I 2.37 | F 2.02 | D 3.96 | P 2.9 | L 2.47 | N 3.32 | Q 3.02 | C 2.19 | K 3.18 | H 2.21 | T 2.67
P6: F 2.85 | L 3.23 | M 4.35 | N 3.46 | Y 3.73 | K 4.05 | C 3.05 | Q 3.42 | V 3.04 | R 3.73 | W 1.96 | G 2.19 | E 4.88 | I 2.57
A2: Y 3.72 | F 3.86 | M 3.78 | L 3.53 | S 3.84 | P 2.15 | N 4.08 | R 3.33 | V 3.97 | Q 4.19 | H 3.63 | T 3.08 | C 2.73 | I 3.49 | K 4.11 | G 3.43 | W 3.88 | D 3.81 | E 4.76
G8: A 3.58 | T 4.16 | L 3.72 | F 2.43 | H 3.3 | Q 3.87 | I 3.48 | P 3.8 | V 3.53 | E 5.24 | Y 2.96 | C 3.12 | K 3.52 | R 3.31 | W 3.56 | S 2.9 | N 3.14 | D 4.5 | M 3.46
G9: S 2.65 | K 3.64 | E 4.04 | L 3.19 | V 2.59 | N 3.21 | M 3.22 | Q 3.6 | T 2.79 | F 2.39 | I 3.48 | H 3.21 | W 2.98 | C 2.13 | P 3.69 | Y 3.56 | R 3.06 | D 4.5

Variants of: B2
Assay: as above
Conditions: c terminus: a fixed tail appended

Protein stability index: each site, then its substitutions
T3: H 2.34 | F 1.62 | I 1.02 | Y 1.62 | C 2.75 | V 2.36 | S 2.31 | P 1.59 | A 2.97 | K 2.08 | Q 2.67 | E 1.65 | M 1.99 | N 1.46 | L 2.72
V9: W 2.17 | L 3.27 | A 2 | E 2.3 | P 1.7 | M 2.43 | H 2.62 | F 2.87 | N 2.26 | G 1.93 | Y 3.18 | K 1.63 | R 3.6 | S 1.82 | T 1.74 | I 2.74 | D 1.4 | Q 1.96
T4: D 2.27 | N 3.79 | H 3.03 | Y 2.75 | L 2.16 | A 1 | M 3.38
